Patent CN111909265A (INST MILITARY MEDICINE ACADEMY MILITARY SCIENCES PLA, dated 2020)

Tests used:
破伤风类毒素 (TT) [1] = molecular target: T1, 破伤风类毒素 (TT) (破伤风梭菌 (C.tetani), UniProt P04958 2-1315); assay: ELISA, coated TT 1 μg/mL, T9-6 titrated 1:3 from 3.3 μg/mL
[2] = molecular target: T2, 破伤风毒素重链C端结构域 (TeNT-HC, GenBank:AF154828) (破伤风梭菌 (C.tetani), UniProt P04958 865-1315); assay: ELISA, coated TeNT-HC 1 μg/mL, T9-6 titrated 1:3 from 3.3 μg/mL
T2 sequence: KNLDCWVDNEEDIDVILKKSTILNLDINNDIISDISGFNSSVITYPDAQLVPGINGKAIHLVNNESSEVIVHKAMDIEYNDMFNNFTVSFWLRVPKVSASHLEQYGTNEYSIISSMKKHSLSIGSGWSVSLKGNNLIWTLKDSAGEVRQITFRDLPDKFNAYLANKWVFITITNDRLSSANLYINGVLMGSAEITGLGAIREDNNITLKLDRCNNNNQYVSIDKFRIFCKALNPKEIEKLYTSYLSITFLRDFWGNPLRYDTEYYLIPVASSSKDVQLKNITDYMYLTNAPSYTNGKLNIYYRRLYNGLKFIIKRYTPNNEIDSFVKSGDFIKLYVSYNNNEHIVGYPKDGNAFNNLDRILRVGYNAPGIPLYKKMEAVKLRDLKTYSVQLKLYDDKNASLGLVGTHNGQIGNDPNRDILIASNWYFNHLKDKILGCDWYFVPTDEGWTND

破伤风类毒素 (TT) [3] = molecular target: T1, 破伤风类毒素 (TT)

T1 sequence (P04958 2-457 limits assumed): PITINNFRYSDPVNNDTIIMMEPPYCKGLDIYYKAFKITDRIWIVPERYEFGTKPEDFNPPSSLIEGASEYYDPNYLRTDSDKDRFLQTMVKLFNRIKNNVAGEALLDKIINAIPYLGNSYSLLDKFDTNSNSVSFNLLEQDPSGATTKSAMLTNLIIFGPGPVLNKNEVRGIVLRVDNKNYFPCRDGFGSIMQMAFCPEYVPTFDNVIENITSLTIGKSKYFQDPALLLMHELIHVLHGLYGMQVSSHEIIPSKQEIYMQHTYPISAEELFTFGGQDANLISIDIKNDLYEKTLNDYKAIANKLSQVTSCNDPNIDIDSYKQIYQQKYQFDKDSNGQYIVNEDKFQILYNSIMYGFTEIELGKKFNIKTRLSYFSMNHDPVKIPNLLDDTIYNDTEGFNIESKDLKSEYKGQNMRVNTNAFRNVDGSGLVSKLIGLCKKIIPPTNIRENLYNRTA

B1: T9-6 人源抗破伤风毒素单克隆抗体 (antibody, V domains shown)
VH: QLVQSGGGLIQPGGSLRLSCAASGSGFSVSSNYMTWVRQAPGKGLEWVAVIYRNGSTNYADSVRGRFTISRDNSKNTVFVQMNRLRVEDTAVYYCARDFVVVVSTGPEVSYYSYGMDVWGQGTMVTGSS
VL: DIVMTQSPSSLSASVGDRVTITCRASQGISDYLSWYQQKPGKAPKRLIYGTSSLDSGVPSRFSGSGSGTEFTLTISSLQPEDVATYYCLQHHGFPRTFGQGTKVDIKR
- EC50 (破伤风类毒素 (TT) [1]): 6.18 ng/mL
- EC50 [2]: 3.45 ng/mL
- Kd (破伤风类毒素 (TT) [3]): 0.397 nM
